T1: SYNJ2BP, P57105
T1 sequence (P57105 8-110, limits assumed, looked up): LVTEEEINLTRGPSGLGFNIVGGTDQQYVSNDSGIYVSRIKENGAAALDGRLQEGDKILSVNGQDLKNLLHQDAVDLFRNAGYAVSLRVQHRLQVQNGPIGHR

T2: MPP7, Q5T2T1
T2 sequence (Q5T2T1 134-230, limits assumed, looked up): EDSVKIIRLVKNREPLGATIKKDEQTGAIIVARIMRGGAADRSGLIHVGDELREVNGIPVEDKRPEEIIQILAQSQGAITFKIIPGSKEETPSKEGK

T3: PDZD7_3, Q9H5P4
T3 sequence (Q9H5P4 857-944, limits assumed, looked up): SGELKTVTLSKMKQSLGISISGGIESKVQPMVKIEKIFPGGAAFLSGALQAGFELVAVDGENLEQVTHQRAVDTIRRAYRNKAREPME

T4: CARD11, Q9BXL7
T4 sequence (Q9BXL7 662-765, limits assumed, looked up): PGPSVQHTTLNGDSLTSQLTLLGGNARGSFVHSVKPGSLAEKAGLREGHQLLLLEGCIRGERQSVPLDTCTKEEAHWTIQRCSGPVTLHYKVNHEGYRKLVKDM

T5: DVL3, Q92997
T5 sequence (Q92997 244-331, limits assumed, looked up): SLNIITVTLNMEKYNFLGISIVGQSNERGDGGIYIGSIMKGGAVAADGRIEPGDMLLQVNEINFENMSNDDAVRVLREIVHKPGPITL

T6: SNTG2, Q9NY99
T6 sequence (Q9NY99 68-166, limits assumed, looked up): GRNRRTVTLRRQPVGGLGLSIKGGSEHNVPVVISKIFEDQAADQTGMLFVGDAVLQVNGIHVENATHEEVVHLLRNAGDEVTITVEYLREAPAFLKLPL

T7: GRIP1_7, Q9Y3R0
T7 sequence (Q9Y3R0 999-1096, limits assumed, looked up): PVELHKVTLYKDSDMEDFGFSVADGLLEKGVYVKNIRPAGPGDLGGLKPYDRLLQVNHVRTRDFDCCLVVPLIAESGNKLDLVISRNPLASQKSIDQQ

T8: GRIP1_3, Q9Y3R0
T8 sequence (Q9Y3R0 247-346, limits assumed, looked up): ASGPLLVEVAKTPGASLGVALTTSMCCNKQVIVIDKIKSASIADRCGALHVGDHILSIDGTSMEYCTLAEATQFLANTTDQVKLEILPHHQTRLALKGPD

T9: GRIP1_4, Q9Y3R0
T9 sequence (Q9Y3R0 467-571, limits assumed, looked up): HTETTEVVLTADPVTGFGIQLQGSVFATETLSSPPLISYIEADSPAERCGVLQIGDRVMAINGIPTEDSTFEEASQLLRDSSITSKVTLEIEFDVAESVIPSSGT

T10: LIN7A, O14910
T10 sequence (O14910 103-200, limits assumed, looked up): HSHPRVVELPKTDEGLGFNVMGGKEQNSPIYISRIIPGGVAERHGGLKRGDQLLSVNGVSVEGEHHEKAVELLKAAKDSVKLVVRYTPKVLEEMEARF


What was measured:
Test in all cases: holdup assay
Parameters in all cases: key: below the threshold = too weak to quantify, mostly under pKd 3.1 to 4
Settings in all cases: plain residues with an end cap or a label only (N-terminal biotin on a linker: ado-ado)
GRIP2_4, Q9C0E4 = biological target: GRIP2_4, Q9C0E4
IL16_3, Q14005 = biological target: IL16_3, Q14005
FRMPD2_3, Q68DX3 = biological target: FRMPD2_3, Q68DX3
DLG4_3, P78352 = biological target: DLG4_3, P78352
DLG1_2, Q12959 = biological target: DLG1_2, Q12959
HTRA2, O43464 = biological target: HTRA2, O43464
SYNJ2BP, P57105 = biological target: T1, SYNJ2BP, P57105
MPP7, Q5T2T1 = biological target: T2, MPP7, Q5T2T1
GRID2IP_2, A4D2P6 = biological target: GRID2IP_2, A4D2P6
IL16_1, Q14005 = biological target: IL16_1, Q14005
PDZD7_3, Q9H5P4 = biological target: T3, PDZD7_3, Q9H5P4
FRMPD2_1, Q68DX3 = biological target: FRMPD2_1, Q68DX3
SNX27, Q96L92 = biological target: SNX27, Q96L92
CARD11, Q9BXL7 = biological target: T4, CARD11, Q9BXL7
GRIP2_7, Q9C0E4 = biological target: GRIP2_7, Q9C0E4
DVL3, Q92997 = biological target: T5, DVL3, Q92997
NHERF4_2, Q86UT5 = biological target: NHERF4_2, Q86UT5
SNTG2, Q9NY99 = biological target: T6, SNTG2, Q9NY99
Inadl_2, Q8NI35 = biological target: Inadl_2, Q8NI35
NHERF4_1, Q86UT5-2 = biological target: NHERF4_1, Q86UT5-2
GRIP1_7, Q9Y3R0 = biological target: T7, GRIP1_7, Q9Y3R0
MAGI1_2, Q96QZ7 = biological target: MAGI1_2, Q96QZ7
MAST1, Q9Y2H9 = biological target: MAST1, Q9Y2H9
GRIP1_3, Q9Y3R0 = biological target: T8, GRIP1_3, Q9Y3R0
DLG4_2, P78352 = biological target: DLG4_2, P78352
NHERF4_4, Q86UT5 = biological target: NHERF4_4, Q86UT5
GRIP1_4, Q9Y3R0 = biological target: T9, GRIP1_4, Q9Y3R0
LIN7A, O14910 = biological target: T10, LIN7A, O14910

MAGI1_2, Q96QZ7, sequence (Q96QZ7 456-580): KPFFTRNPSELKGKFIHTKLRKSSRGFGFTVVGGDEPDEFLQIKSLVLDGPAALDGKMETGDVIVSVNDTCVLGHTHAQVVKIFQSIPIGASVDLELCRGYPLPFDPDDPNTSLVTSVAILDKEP
FRMPD2_1, Q68DX3, sequence (Q68DX3 770-861): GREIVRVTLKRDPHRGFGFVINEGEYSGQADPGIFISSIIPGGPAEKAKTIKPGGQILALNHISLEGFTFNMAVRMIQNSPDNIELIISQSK
MAST1, Q9Y2H9, sequence (Q9Y2H9 962-1065): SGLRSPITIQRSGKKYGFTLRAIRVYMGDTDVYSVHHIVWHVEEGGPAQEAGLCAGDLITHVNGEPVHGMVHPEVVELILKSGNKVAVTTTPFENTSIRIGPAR
Inadl_2, Q8NI35, sequence (Q8NI35 238-335): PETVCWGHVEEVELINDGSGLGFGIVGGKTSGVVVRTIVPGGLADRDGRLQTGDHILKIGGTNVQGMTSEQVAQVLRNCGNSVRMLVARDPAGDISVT
HTRA2, O43464, sequence (O43464 355-458): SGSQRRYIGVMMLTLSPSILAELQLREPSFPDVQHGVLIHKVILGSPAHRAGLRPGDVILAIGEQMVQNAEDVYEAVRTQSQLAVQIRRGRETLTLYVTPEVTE
DLG4_3, P78352, sequence (P78352 306-403): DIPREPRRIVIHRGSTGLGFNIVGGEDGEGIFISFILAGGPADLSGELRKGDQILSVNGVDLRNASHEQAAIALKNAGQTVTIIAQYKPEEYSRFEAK
GRIP2_4, Q9C0E4, sequence (Q9C0E4 446-548): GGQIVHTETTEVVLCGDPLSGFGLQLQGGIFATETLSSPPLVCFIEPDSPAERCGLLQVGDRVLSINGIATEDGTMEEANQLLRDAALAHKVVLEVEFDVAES
NHERF4_4, Q86UT5, sequence (Q86UT5 464-550): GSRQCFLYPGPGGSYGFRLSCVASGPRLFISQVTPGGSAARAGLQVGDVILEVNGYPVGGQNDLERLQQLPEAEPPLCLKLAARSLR
NHERF4_2, Q86UT5, sequence (Q86UT5 220-308): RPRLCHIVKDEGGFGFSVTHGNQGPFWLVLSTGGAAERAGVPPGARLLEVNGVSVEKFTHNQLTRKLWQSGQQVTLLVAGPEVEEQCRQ
GRID2IP_2, A4D2P6, sequence (A4D2P6 272-370): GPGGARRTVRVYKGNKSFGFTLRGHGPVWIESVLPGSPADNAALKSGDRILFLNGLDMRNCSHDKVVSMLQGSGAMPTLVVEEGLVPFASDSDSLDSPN
GRIP2_7, Q9C0E4, sequence (Q9C0E4 934-1023): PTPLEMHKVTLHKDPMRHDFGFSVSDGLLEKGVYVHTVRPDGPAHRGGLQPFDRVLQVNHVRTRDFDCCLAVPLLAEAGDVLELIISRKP
DLG1_2, Q12959, sequence (Q12959 314-412): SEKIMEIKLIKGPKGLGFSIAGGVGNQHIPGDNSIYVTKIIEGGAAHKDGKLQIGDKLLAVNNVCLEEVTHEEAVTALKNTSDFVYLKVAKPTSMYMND
IL16_3, Q14005, sequence (Q14005 1107-1207): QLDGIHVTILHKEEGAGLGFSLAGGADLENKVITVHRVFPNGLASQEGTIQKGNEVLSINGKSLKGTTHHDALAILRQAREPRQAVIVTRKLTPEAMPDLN
NHERF4_1, Q86UT5-2, sequence (Q86UT5 other isoform, or with tags, fused parts or gaps): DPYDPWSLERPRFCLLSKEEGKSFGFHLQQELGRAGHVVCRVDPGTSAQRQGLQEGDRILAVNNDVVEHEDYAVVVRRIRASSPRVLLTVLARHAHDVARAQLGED
DLG4_2, P78352, sequence (P78352 155-259): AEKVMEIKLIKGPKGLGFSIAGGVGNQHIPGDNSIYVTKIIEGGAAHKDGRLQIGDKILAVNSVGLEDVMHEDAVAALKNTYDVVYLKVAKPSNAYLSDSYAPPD
IL16_1, Q14005, sequence (Q14005 210-306): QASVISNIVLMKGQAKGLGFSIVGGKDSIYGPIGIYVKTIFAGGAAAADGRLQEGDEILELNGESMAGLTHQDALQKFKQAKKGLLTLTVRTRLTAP
FRMPD2_3, Q68DX3, sequence (Q68DX3 1073-1166): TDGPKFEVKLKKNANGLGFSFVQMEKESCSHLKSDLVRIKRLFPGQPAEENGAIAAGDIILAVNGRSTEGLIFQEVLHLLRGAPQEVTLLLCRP

Row | pKd (GRIP2_4, Q9C0E4) | pKd (IL16_3, Q14005) | pKd (FRMPD2_3, Q68DX3) | pKd (DLG4_3, P78352) | pKd (DLG1_2, Q12959) | pKd (HTRA2, O43464) | pKd (SYNJ2BP, P57105) | pKd (MPP7, Q5T2T1) | pKd (GRID2IP_2, A4D2P6) | pKd (IL16_1, Q14005) | pKd (PDZD7_3, Q9H5P4) | pKd (FRMPD2_1, Q68DX3) | pKd (SNX27, Q96L92) | pKd (CARD11, Q9BXL7) | pKd (GRIP2_7, Q9C0E4) | pKd (DVL3, Q92997) | pKd (NHERF4_2, Q86UT5) | pKd (SNTG2, Q9NY99) | pKd (Inadl_2, Q8NI35) | pKd (NHERF4_1, Q86UT5-2) | Binder | also measured
1 | below the threshold | below the threshold | 3.97 | below the threshold | 3.95 | below the threshold | 4.06 | below the threshold | below the threshold | 3.63 | 3.88 | 4 | 3.83 | below the threshold | below the threshold | below the threshold | below the threshold | below the threshold | below the threshold | below the threshold | TRKRSGEAAV [PFKM, P08237] | pKd (GRIP1_7, Q9Y3R0): below the threshold; pKd (MAGI1_2, Q96QZ7): below the threshold; pKd (MAST1, Q9Y2H9): 4.08; pKd (GRIP1_3, Q9Y3R0): below the threshold; pKd (DLG4_2, P78352): 3.93; pKd (NHERF4_4, Q86UT5): below the threshold; pKd (GRIP1_4, Q9Y3R0): below the threshold; pKd (LIN7A, O14910): below the threshold
2 | below the threshold | below the threshold | below the threshold | below the threshold | 4.45 | below the threshold | below the threshold | below the threshold | 4.56 | below the threshold | 4.91 | below the threshold | 4.12 | below the threshold | below the threshold | below the threshold | below the threshold | 3.98 | below the threshold | 4 | AAVENKVTDL [PLXNB1, O43157] | pKd (GRIP1_7, Q9Y3R0): below the threshold; pKd (MAGI1_2, Q96QZ7): below the threshold; pKd (MAST1, Q9Y2H9): 4.67; pKd (GRIP1_3, Q9Y3R0): below the threshold; pKd (DLG4_2, P78352): 4.2; pKd (NHERF4_4, Q86UT5): below the threshold; pKd (GRIP1_4, Q9Y3R0): below the threshold; pKd (LIN7A, O14910): below the threshold
